# From the nanobody polyreactivity screen of Harvey et al. (2022)
# Assay: yeast display, Sf9 membrane polyspecificity reagent, FACS + sequencing; frameworks hold sequencing errors
# In short: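 Genes from sorted yeast were amplified by colony PCR, read by MiSeq 2 × 250 sequencing and filtered on CDR length. These cells carried a synthetic nanobody library in Saccharomyces cerevisiae BJ5465 and were sorted by FACS into low and high (top ~1%) gates on anti-HA and streptavidin fluorescence. Polyreactivity is labelled according to the gate of origin.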
row,Sequence,polyreactivity (PSR sort gate)
1,QVQLVESGGGLVQAGGSLRLSCAASGFIFIRNAMGWYRQAPGKERELVAAISSGCRTYYADSVKGRFTISRDNAKNTVYLQMNSLKPEDTAVYYCATRPHRPRGHSVGQYDYWGQGTQVTVSS,high polyreactivity
2,QVQLVESGGGLVQAGGSLRLSCAASGFIFKDNARGWYRQATGKEREFVASITASGGSTTYADSVKGRFTISRDTAKNTVYLQMTSLKPEDTAVYYCAARVGWNKRRYDYWGQGTQVTVSS,low polyreactivity
3,QVQLVESGGGLVQAGGSLRLSCAASGFIFKGNAMGWYRPAPGKERELVAAISSRGGSTYYADSVKGRFTISRDNAKNTVYLQMNSLKPEDTAVYYCATRVYWRNDYWGQGTQVTVSS,high polyreactivity
4,QVQLVESGGGLVQAGGSLRLSCAASGFIFKGYAMGWYRQAPGKERELVAAISSGGSTNYADSVKGRFTISRDNAKNTVYLQMNSLKPEDTAVYYCAAGRYIRHYWYGYWGQGTQVTVSS,high polyreactivity
5,QVQLVESGGGLVQAGGSLRLSCAASGFIFKHYAMGWYRQAPGKERELVAAITISASRTYYADSVKGRFTISRDNAKNTVYLQMNSLKPEDTAVYYCARRLLRGSDWGQGTQVTVSS,high polyreactivity
6,QVQLVESGGGLVQAGGSLRLSCAASGFIFKIYAMGWYRQAPGKERELVAAISSGDNTNYADSVKGRFTISRDNAKNTVYLQMNSLKPEDTAVYYCAARAYRWRSFSTMYYWGQGTQVTVSS,high polyreactivity
7,QVQLVESGGGLVQAGGSLRLSCAASGFIFKKYAMGWYRQAPGKERELVAAISWSGGNTYYADSVKGRFTISRDNAKNTVYLQMNSLKPEDTAVYYCNAAGRRYKFDYWGQGTQVTVSS,high polyreactivity
8,QVQLVESGGGLVQAGGSLRLSCAASGFIFKRYAMGWYRQAPGKERELVAAISTYSGGRTYYADSVKGRFTISRDNAKNSVYLQMNSLKPEDTAVYYCNARKYVGFWSRYDYWGQGTQVTVSS,high polyreactivity
9,QVQLVESGGGLVQAGGSLRLSCAASGFIFKRYAMGWYRQAPGKERELVAAITGSGSRTYYADSVKGRFTISRDNAKNTVYLQMNSLKPEDTAVYYCNKDRRPTADFGYWGQGTQVTVSS,high polyreactivity
10,QVQLVESGGGLVQAGGSLRLSCAASGFIFKRYGMGWYRQAPGKERELVAAISYSGGSTYYADSVKGRFTISRDNAKNTVYLQMNSLKPEDTAVYYCKATIHYNAGWTMGSWGQGTQVTVSS,high polyreactivity
11,QVQLVESGGGLVQAGGSLRLSCAASGFIFKRYTMGWYRPAPGKERELVATINWNGGNTYYADSVKGRFTISRDNAKNTVYLQMNSLKPEDTAVYYCNARYWRGQGWPGYDYWGQGTQVTVSS,high polyreactivity
12,QVQLVESGGGLVQAGGSLRLSCAASGFIFKVYAMGWYRQAPGKERELVAAISSRGGRTNYADSVKGRFTISRDNAKNTVYLQMNSLKPEDTAVYYCATGAAGAYDYWGQGTQVTVSS,high polyreactivity
13,QVQLVESGGGLVQAGGSLRLSCAASGFIFKYYTMGWYRPAPGNERELVAAISKNAGSTYYADSVKGRFTISRDNAKNTVYLQMNSLKPEDTAVYYCARTYSTWYYYWGQGTQVTVSS,high polyreactivity
14,QVQLVESGGGLVQAGGSLRLSCAASGFIFLAYTMGWYRQAPGKERELVAAISTSGGSTYYEDSVKGRFTISRDNAKNTVYLQMNSLKPEDTAVYYCAARYRWGRYDYWGQGTQVTVSS,high polyreactivity
15,QVQLVESGGGLVQAGGSLRLSCAASGFIFLDNAMGWNRQAPGKERELVDAISSTGSTYADSVKGRFTISRDNAKNTVYLQMNSLKPEDTAVYYCAADIEVSWDDDGYYPEYDYWGQGTQVTVSS,low polyreactivity
16,QVQLVESGGGLVQAGGSLRLSCAASGFIFLGNAMGWYRQAPGKERELVAAISSGGSTYADSVKGRFTISRDNAKNTVYLQMNSLKPEDTAVYYCAVDRAFRAQNYHEYDYWGQGTQVNVSS,low polyreactivity

row,Sequence,polyreactivity (PSR sort gate)
1,QVQLVESGGGLVQAGGSLRLSCAASGFIFLGYAMGWYRPAPGKERELVATITWRGGSTYYADSVKGRFTISRDNAKNTVYLQMNSLKPEDTAVYYCAATRGWLHSFARDDHDYWGQGTQVTVSS,high polyreactivity
2,QVQLVESGGGLVQAGGSLRLSCAASGFIFLGYAMGWYRQAPGKEREFVAGITITGGSTYYADSVKGRFTISRDNAKNTVYLQMNSLKPEDTAVYYCNAESNLYRRRRNYWGQGTQVTVSS,low polyreactivity
3,QVQLVESGGGLVQAGGSLRLSCAASGFIFLLYDMGWYRQAPGKERELVAAITSDGTTNYADSVKGRFTISRDNAKNTVYLQMNSLKPEDTAVYYCAADGFTRWGRYDYWGQGTQVTVSS,high polyreactivity
4,QVQLVESGGGLVQAGGSLRLSCAASGFIFLPYAKGWYRQAPGKERELVAAITRGGRTYYADSVKGRFTISRDNAKNTVYLQMNSLKPEDTAVYYCAATTYLVWGYNYWGQGTQVTVSS,low polyreactivity
5,QVQLVESGGGLVQAGGSLRLSCAASGFIFLPYAMGWARQAPGKERELVAAITRGGRTYYADSVKGRFTISRDNAKNTVYLQMNSLKPEDTAVYYCAATTYLVWGYNYWGQGTQVTVSS,low polyreactivity
6,QVQLVESGGGLVQAGGSLRLSCAASGFIFLPYAMGWYRQAPGKERELVAAITRGGRTYYADSVKGRFTISRDNAKNTVYLKMNSLKPEDTAVYYCAATTYLVWGYNYWGQGTQVTVSS,low polyreactivity
7,QVQLVESGGGLVQAGGSLRLSCAASGFIFLSYGMGWYRPAPGKERELVASITSDGGSTYYADSVKGRFTISRDNAKNTVYLQMNSLKPEDTAVYYCAADSVSPWYYGWYYRYRGYGYWGQGTQVTVSS,low polyreactivity
8,QVQLVESGGGLVQAGGSLRLSCAASGFIFLVNAMGWYRRGPGTERELVAAISKSTGGTYYADSVKGRFTISRDNAKNTVYLQMNSLKPEDTAVYYCAADEVYPVQRDMDYWGQGTQVTVSS,low polyreactivity
9,QVQLVESGGGLVQAGGSLRLSCAASGFIFLVYAMGWYRQAPGKERELVAAISASGGRTYYADSVKGRFTISRDNAKNTVYLQMNSLKPEYTAVYYCARLLPTPGKPILDYWGQGTQVTVSS,low polyreactivity
10,QVQLVESGGGLVQAGGSLRLSCAASGFIFNAYAMGWYRQAPGKERELVAAVSWSGARTYYADSVKGRFTISRDNAKNTVYLQMNSLKPEDTAVYYCAAEYSGVHYQQAYDYSEGLDYWGQGTQVTVSS,low polyreactivity
11,QVQLVESGGGLVQAGGSLRLSCAASGFIFNFYAMGLYRQAPGKERELVAAISRSGGGTYYADSVKGRFTISRDNAKYTVYFQMNSLKPEDTAVYSCNVDKYRIVGFHSPYDYWGQGTQVTVSS,high polyreactivity
12,QVQLVESGGGLVQAGGSLRLSCAASGFIFNHYAMGWYRQAPGKEREFVAAISWSGTRTYYADSVKGRFTISRDNAKNTVYLQMNSLKPEDTSVYYCAADVWGPYDYWGQGTQLTVSS,low polyreactivity
13,QVQLVESGGGLVQAGGSLRLSCAASGFIFNKNAMGWYRQAPGKERELVAAITFGGGTTYYADSVKGRFTISRDNAKNTVYLQMNSLKPEDTAVYYCNAVYYWYKGDYWGQGTQVTVSS,high polyreactivity
14,QVQLVESGGGLVQAGGSLRLSCAASGFIFNRYAMGWYRQAPGKERELVAGITSSGGSTYYADSVKGRFTISRDNAKNTVYLQMNSLKPEDTAVYYCNADSWLYRFFGYDYWGQGTQVTVSS,low polyreactivity
15,QVQLVESGGGLVQAGGSLRLSCAASGFIFNTNAMGWYRQAPGKERELVAGISRSGVRTYYADSVKGRFTISRDNAKNTVFLQMNSLKPEDTAVYYCAATSLPRYYYWGQGTQVTVSS,low polyreactivity
16,QVQLVESGGGLVQAGGSLRLSCAASGFIFPENDMGWYRQAPGKERELVATISGDTSTNYADSVKGRFTISRDNAKHTVYLQMNSLKPEDTAVYYCNRKLKGRKSHKLDYDYWGQGTQVTVSS,low polyreactivity
